From US20230265215A1 (OMEROS, published 2023)

Assays:
MASP-1 = target: T1, MASP-1 (human, UniProt P48740 20-699, limits assumed); test: solid phase ELISA, against human MASP-2 as reference
T1 construct: Species read from 'Recombinant human MASP-2 or C1r, C1s, CFD, MASP-1 and MASP-3'
T1 sequence (looked up): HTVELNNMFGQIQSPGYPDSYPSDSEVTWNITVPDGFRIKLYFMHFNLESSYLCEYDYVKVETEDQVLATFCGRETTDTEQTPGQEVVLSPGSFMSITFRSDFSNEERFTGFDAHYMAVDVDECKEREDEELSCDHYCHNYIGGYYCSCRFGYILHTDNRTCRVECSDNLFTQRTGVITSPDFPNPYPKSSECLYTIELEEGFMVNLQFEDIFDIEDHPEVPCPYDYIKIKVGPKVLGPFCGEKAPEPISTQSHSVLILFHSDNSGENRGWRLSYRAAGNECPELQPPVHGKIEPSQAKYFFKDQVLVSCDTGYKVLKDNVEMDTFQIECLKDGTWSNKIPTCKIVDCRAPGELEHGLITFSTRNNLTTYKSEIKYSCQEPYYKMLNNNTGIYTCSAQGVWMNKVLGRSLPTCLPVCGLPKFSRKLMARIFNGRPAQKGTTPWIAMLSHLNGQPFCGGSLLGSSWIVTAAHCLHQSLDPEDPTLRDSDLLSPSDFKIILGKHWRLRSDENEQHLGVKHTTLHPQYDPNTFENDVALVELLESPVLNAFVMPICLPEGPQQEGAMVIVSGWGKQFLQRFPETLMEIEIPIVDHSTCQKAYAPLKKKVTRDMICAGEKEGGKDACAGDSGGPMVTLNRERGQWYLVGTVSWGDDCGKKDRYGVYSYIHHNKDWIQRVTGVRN
Text: (§1) The apparent dissociation constant (KD) was estimated by nonlinear regression using a 4-parameter logistic model.
(§2) Fold selectivity calculated as KD(related serine protease)/mean KD(MASP-2).

C1r = target: T2, C1r (human, UniProt P00736 18-705, limits assumed); test: as above
T2 construct: Species read from 'Recombinant human MASP-2 or C1r, C1s, CFD, MASP-1 and MASP-3'
T2 sequence (looked up): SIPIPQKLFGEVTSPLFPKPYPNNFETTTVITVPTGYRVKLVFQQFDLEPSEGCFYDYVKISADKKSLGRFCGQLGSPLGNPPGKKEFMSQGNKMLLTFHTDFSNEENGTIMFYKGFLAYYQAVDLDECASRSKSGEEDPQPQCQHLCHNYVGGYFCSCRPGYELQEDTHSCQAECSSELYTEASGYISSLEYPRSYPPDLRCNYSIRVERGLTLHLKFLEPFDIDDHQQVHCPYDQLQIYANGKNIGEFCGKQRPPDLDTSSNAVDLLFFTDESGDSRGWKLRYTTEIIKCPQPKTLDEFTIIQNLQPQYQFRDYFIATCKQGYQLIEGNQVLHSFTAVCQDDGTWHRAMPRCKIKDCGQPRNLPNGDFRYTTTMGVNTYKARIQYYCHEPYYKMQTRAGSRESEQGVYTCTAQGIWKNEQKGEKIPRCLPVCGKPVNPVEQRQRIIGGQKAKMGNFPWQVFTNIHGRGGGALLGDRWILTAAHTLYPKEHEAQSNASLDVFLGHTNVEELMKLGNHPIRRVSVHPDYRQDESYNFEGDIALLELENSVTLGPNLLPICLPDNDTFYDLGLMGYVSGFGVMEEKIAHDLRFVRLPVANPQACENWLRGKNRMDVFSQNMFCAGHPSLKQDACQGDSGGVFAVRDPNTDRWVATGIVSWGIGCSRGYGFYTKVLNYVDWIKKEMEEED
Text: as §1, §2

Fold selectivity (KD related serine protease / mean KD MASP-2) (MASP-1): > 2000 fold
Fold selectivity (KD related serine protease / mean KD MASP-2) (C1r): > 2000 fold
B1: mAb OMS858 (humanized anti-MASP-2 antibody) (antibody, V domains shown)
VH: QVQLVQSGAEVKKPGASVKVSCKASGYTFTNHHMHWLRQAPGQGLEWIGDIDASDSETHYIEKFKDRATLTIDKSSSTAYMELSSLRSEDTAVYYCARGDITTTLRYFDVWGQGTLVTVSS
VL: DIQLTQSPSSLSASVGDRVTITCSASSSVRYMYWYQQKPGKAPKLLIYDTSNLASGVPSRFSGSGSGTDNTLTISSLQPEDFATYYCQQWSSYPLTFGQGTKVEIKR
notes: also called antibody OMS858; biotinylated OMS858
